Assay results reported in US20250205308A1, “Supraparticles” (THE BIONICS INSTITUTE OF AUSTRALIA, priority 2017, published 2025).

Test: In vivo clearance of radiolabelled neurotrophin-3 from the cochlea after supraparticle implantation (whole cochlear gamma counts)
Description: In vivo studies were carried out to determine the drug payload and clearance of neurotrophin delivered in a supraparticle implanted into the ear after 4 hr, 3 day and 7 days of implantation. The objective was to determine the amount of neurotrophin remaining in the cochlea over time.
1 SP containing radiolabelled neurotrophin-3 was implanted into each cochlea. Cochleae were harvested following 4 hrs (n=5), 3d (n=7) or 7d (n=4). Whole cochlear gamma counts were measured to determine the clearance of neurotrophin-3 over time. After 1 week of implantation each SP contained ˜2 μg of neurotrophin-3 (˜40%) of initial loaded amount.
Further experiments (n=2) were carried out to examine clearance of neurotrophin-3 following round window delivery. 3 days after implantation-whole cochlear measurements were again used to determine the clearance of neurotrophin-3 from the round window membrane.

[1] = 1 SP implanted into each cochlea, after 1 week of implantation

Substance: neurotrophin-3: Radiolabelled neurotrophin delivered in a supraparticle implanted into the cochlea
- neurotrophin-3 remaining (% of initial loaded amount) [1]: ~40%
- neurotrophin-3 remaining per SP [1]: ~2 µg
- neurotrophin-3 remaining (intracochlear delivery, 3 days): 56%
- neurotrophin-3 remaining (round window delivery, 3 days after implantation): 47.4%
